Measurements taken from PMC3321547 (Biochemistry, 2009).
Several values for one entry are separate records, joined by “and”; a condition that tells them apart may be missing. Equal entries are not always repeated.

Tests used:
[1] = target: T1, DKH412 (Drosophila kinesin heavy chain residues 1-412, dimeric head construct) (Drosophila, UniProt P17210 1-412); test: inhibition of basal steady state ATPase
[2] = target: T1, DKH412 (Drosophila kinesin heavy chain …); test: FRET or BRET
[3] = target: T1, DKH412 (Drosophila kinesin heavy chain …); test: inhibition of mADP release from the heads
[4] = target: T1, DKH412 (Drosophila kinesin heavy chain …); test: inhibition of mADP release from the heads; remark: listed apart in the source
[5] = target: T1, DKH412 (Drosophila kinesin heavy chain …); test: inhibition of basal steady state ATPase; remark: listed apart in the source
[6] = target: T1, DKH412 (Drosophila kinesin heavy chain …); test: co-sedimentation

AVRQKHLGRRGPQAQIAKPIRSGQGATS (domain or fragment, Drosophila) [TT927-952 (thioredoxin fusion of kinesin tail residues 927-952)]
Kd [1]: < 100 nM

B1: NF910-952mGFP (non-fusion kinesin tail peptide 910-952 with C-terminal mGFP) (domain or fragment)
chain: not shown
Kd [2]: 400 nM
koff [2]: ~32 s⁻¹
observed rate of dissociation with a 5-fold excess of unlabelled tail (trace b) [2]: 30.9 s⁻¹
observed rate of dissociation with a 20-fold excess of unlabelled tail (trace c) [2]: 32.8 s⁻¹

B2: NF910-952 (non-fusion kinesin tail peptide, residues 910-952) (peptide)
chain: not shown
Kd [3]: 330 nM
Kd [4]: 21 nM
stoichiometry N [1]: 1 tail peptide per two head peptides
Kd [5]: 66 nM

B3: TT910-952mGFP (thioredoxin fusion of kinesin tail residues 910-952 with C-terminal mGFP) (domain or fragment)
chain: not shown
stoichiometry N [6]: < 0.5 TT910-952mGFP per DKH412 monomer and ~0.5 tail peptide per head peptide
